Test results from patent US20230174596A1 (published 2023).

T1: hVEGF-A (8-109) (human, UniProt P15692 214-315)
T1 construct: residue numbers count on mature VEGF-A; dimer
T1 sequence (looked up): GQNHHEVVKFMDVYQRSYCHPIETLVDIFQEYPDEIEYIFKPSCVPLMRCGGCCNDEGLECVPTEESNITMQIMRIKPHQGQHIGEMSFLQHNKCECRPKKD

T2: human VEGF-A (human, UniProt P15692-4 34-135, limits assumed)
T2 sequence (looked up): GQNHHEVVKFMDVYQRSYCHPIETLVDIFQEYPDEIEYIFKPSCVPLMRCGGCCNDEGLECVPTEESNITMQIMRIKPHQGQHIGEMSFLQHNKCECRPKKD


Molecular target: T1, hVEGF-A (8-109)
Assay: spot phage ELISA

| Binder | binding result | ELISA | S/N |
| --- | --- | --- | --- |
| GCDVMQPYWGCEMDFDCLAGCICHWYNSCGFS (designed binder) [9.63-4] | binds |  |  |
| GCDVMQPYWGCEMDFDCLAGCICHWYNSCGTS (designed binder) [9.63.44-8] | binds |  |  |
| GCDVMQPYWGCEMDFDCLAGCICHWYNSCGLQ (designed binder) [9.63-79] | binds |  |  |
| GCDVMQPYWGCEMDFDCLAGCICHWYNSCGYA (designed binder) [9.63.44-3] | binds |  |  |
| GCDVMQPYWGCEMDFDCLAGCVCHWYNSCGPL (designed binder) [9.63.44-12] | binds |  |  |
| GCDVMQPYWGCEMDFDCLAGCICHWYNSCGQV (designed binder) [9.63-20] | binds |  |  |
| GCDVMQPYWGCEMDFDCLAGCICHWYNSCGTS (designed binder) [9.63-72] | binds |  |  |
| GCDVMQPYWGCEMDFDCLAGCICHWYNSCGQV (designed binder) [9.63.44-2] | binds |  |  |
| GCDVMQPYWGCEMDFDCLAGCICHWYNSCGYA (designed binder) [9.63-22] | binds |  |  |
| GCDVMQPYWGCEMDFDCLAGCVCHWYNSCGPL (designed binder) [9.63-70] | binds |  |  |
| GCDVMQPYWGCEMDFDCLAGCVCHWYNSCGQF (designed binder) [9.63.44-13] | binds |  |  |
| GCDVMQPYWGCEMDFDCLAGCICHWYNSCGLQ (designed binder) [9.63.44-9] | binds |  |  |
| GCDVMQPYWGCEMDFDCLVGCVCHWYNSCGDE (designed binder) [9.63.44-10] | binds |  |  |
| GCDVMQPYWGCEMDFDCLAGCVCHWYNSCGGI (designed binder) [9.63.44-7] | binds |  |  |
| GCDVMQPYWGCEMDFDCLAGCICHWYNSCGFS (designed binder) [9.63.44-1] | binds |  |  |
| GCDVMQPYWGCEMDFDCLAGCICHWYNSCGSR (designed binder) [9.63-25] | binds |  |  |
| GCDVMQPYWGCEMDFDCLAGCVCHWYNSCGGI (designed binder) [9.63-67] | binds |  |  |
| GCDVMQPYWGCEMDFDCLAGCVCHWYNSCGGI (designed binder) [9.63.44-10-A] | binds |  |  |
| GCDVMQPYWGCEMDFDCLAGCICHWYNSCGSR (designed binder) [9.63.44-4] | binds |  |  |
| GCQDPKLNWAVYCKQDSDCLAGCVCQLFNSCG (designed binder) [VEGF_CKP7.88] |  | 0.5 | 7.7 |
| GCQDPTFNWAEYCKQDSDCLAGCVCQMYQSCG (designed binder) [VEGF_CKP7.35] |  | 0.6 | 10.6 |
| GCQDPTLNWATYCKQDSDCLAGCVCQMYQSCG (designed binder) [VEGF_CKP7.43] |  | 0.5 | 6.3 |
| GCQDPSLNWADYCKQDSDCLAGCVCQMHQSCG (designed binder) [VEGF_CKP7.50] |  | 0.8 | 14.3 |
| GCRDLTINWALFCKQDSDCLAGCVCQMFNSCG (designed binder) [VEGF_CKP7.73] |  | 1.2 | 19.2 |
| GCLDPTVNWALFCKQDSDCLAGCVCQHYKTCG (designed binder) [VEGF_CKP7.81] |  | 1.1 | 18.6 |
| GCLDRTLNWALYCKQDSDCLAGCVCQMYNSCG (designed binder) [VEGF_CKP7.54] |  | 0.5 | 9.3 |
| GCHMMYDYCKQDSDCLAGCVCEMYDACG (designed binder) [VEGF_CKP3] |  | 3.1 | 42.9 |
| GCKDTTFNWGLFCKQDSDCLAGCVCQLYQSCG (designed binder) [VEGF_CKP7.78] |  | 0.7 | 11.8 |
| GCLDPSFNWSLYCKQDSDCLAGCVCQMYDSCG (designed binder) [VEGF_CKP7.57] |  | 1 | 17.4 |
| GCLDPSFDWALYCKQDSDCLAGCVCQLYNSCG (designed binder) [LRP6_CKP7.89] |  | 0.5 | 8.1 |

Molecular target: T2, human VEGF-A
Assay: cell-based or functional assay

| Binder | Cellular IC50 [nM] | fold improvement relative to variant 9.54.90 (cellular IC50) [fold] |
| --- | --- | --- |
| GCNIMLPFWGCGRDFECMQTCICQYYQSCG (designed binder) [VEGF_CKP9.54.90.25] | 1.26 | 1.07 |
| GCNIMLPFWGCGRDFECMSDCICQYYQSCG (designed binder) [VEGF_CKP9.54.90.12] | 1.2 | 1.12 |
| GCNIMLPFWGCGRDFECMNQCICQYYQSCG (designed binder) [VEGF_CKP9.54.90.13] | 0.96 | 1.41 |

Molecular target: LRP6 E1E2 protein (human) (UniProt O75581)
Assay: spot phage ELISA

Chain of LRP6 E1E2 protein (human) (O75581 20-630 limits assumed): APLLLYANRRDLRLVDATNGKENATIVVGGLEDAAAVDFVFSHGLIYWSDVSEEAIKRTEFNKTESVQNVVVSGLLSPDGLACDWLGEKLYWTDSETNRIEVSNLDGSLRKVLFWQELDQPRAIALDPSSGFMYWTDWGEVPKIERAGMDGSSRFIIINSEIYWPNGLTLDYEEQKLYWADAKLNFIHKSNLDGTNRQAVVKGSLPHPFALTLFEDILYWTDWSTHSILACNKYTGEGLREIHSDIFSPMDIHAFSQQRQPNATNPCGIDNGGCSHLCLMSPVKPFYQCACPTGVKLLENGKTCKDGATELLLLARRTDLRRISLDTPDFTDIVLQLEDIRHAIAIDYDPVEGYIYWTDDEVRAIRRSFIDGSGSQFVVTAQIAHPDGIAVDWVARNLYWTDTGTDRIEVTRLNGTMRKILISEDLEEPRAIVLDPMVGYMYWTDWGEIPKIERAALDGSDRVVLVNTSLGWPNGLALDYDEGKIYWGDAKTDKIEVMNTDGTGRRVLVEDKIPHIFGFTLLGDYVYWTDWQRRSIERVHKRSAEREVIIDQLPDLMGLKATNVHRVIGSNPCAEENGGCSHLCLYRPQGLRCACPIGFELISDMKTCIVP

| Binder | ELISA | S/N |
| --- | --- | --- |
| GCVSNRVNKGCKQDSDCLAGCVCGPNGFCG (designed binder) [LRP6_CKP7] | 3.3 | 29 |
| GCRSGNTIRKRECKQDSDCLAGCVCGGPGGCG (designed binder) [LRP6_CKP9] | 2.97 | 37.6 |
| GCRGNIIKCKQDSDCLAGCVCNESRGCG (designed binder) [LRP6_CKP8] | 3.23 | 37.6 |
| GCENRTKGCKQDSDCLAGCVCGFRGTCG (designed binder) [LRP6_CKP20] | 3.1 | 38.7 |
| GCNRIRNSCKQDSDCLAGCVCGRGDYCG (designed binder) [LRP6_CKP15] | 2.03 | 26.3 |
| GCRANRVSGRCKQDSDCLAGCVCGPNGFCG (designed binder) [LRP6_CKP18] | 1.67 | 18.3 |
| GCMNHVKARRCKQDSDCLAGCVCGPNGFCG (designed binder) [LRP6_CKP3] | 2.93 | 40.2 |
| GCVNRVRGCKQDSDCLAGCVCSGGRDCG (designed binder) [LRP6_CKP2] | 3.41 | 41.6 |
| GCRNSIKRCKQNSDCLAGCVCSVGHGCG (designed binder) [LRP6_CKP6] |  | 37.4 |
| GCSNYVKRCKQDSDCLAGCVCSPGGRCG (designed binder) [LRP6_CKP17] | 3.09 | 35.9 |
| GCVNSVKRCKQDSDCLAGCVCSRGVNCG (designed binder) [LRP6_CKP13] | 3.28 | 37.8 |
| GCRTNRVKGGCKQDSDCLAGCVCGPNGFCG (designed binder) [LRP6_CKP1] | 3.23 | 45.5 |
| GCASSNSIRQGWCKQDSDCLAGCVCGPKSNCG (designed binder) [LRP6_CKP10] | 3.29 | 37.4 |
| GCSRNSIKCKQDSDCLAGCVCASGSSCG (designed binder) [LRP6_CKP16] | 3.36 | 31.1 |
| GCGNKIRACKQDSDCLAGCVCRDRVGCG (designed binder) [LRP6_CKP21] | 2.8 | 33.7 |
| GCSNRVKVRACKQDSDCLAGCVCGPNGFCG (designed binder) [LRP6_CKP19] | 3.27 | 42 |
| GCRSVNKICKQDSDCLAGCVCGSSRNCG (designed binder) [LRP6_CKP4] | 2.82 | 25.4 |
| GCVNKIKGCKQDSDCLAGCVCGVEGRCG (designed binder) [LRP6_CKP5] | 3.04 | 35.7 |
| GCRSNRIRCKQDSDCLAGCVCYGHGDCG (designed binder) [LRP6_CKP11] | 2.65 | 36.8 |
| GCANRVKRTSCKQDSDCLAGCVCGPNGFCG (designed binder) [LRP6_CKP22] | 3.43 | 42.9 |
| GCRSNKLREARGCKQDSDCLAGCVCGSRQDCG (designed binder) [LRP6_CKP12] | 0.6 | 6.78 |
| GCGSNKIRPRCKQDSDCLAGCVCGPNDFCG (designed binder) [LRP6_CKP14] | 3.18 | 43.5 |
